Experimental data: patent publication EP4682169A1
Where a chain is given by its changes, count along the chain named.

B1: 1-hIgG1Fc (Fc fusion, not shown: a dimerising Fc or GST)
chain: EVQLVGSGGGLVQPGGSLRLSCAASGSILNLMTTGWYRQAPGKQRDLVATITFGGTTNYADSVKGRFTISRDKSKNTAYLQMDNLKPEDTAVYFCYADVIVGFQDRRVAWDAGTQVTVSS
B2: 10-hIgG1Fc (Fc fusion, not shown: a dimerising Fc or GST)
chain: QVQLAESGGGLVQPGGSLRLSCAASGNILSINYMGWYRQAPGKERELVATITRGGTTNYQGDLKGRFIISGDNTKDTVYLQMNNLQPEDTAVYYCYFRINFGILGGLRDYWGQGTQVTVSS
B3: 8-hIgG1Fc (Fc fusion, not shown: a dimerising Fc or GST)
chain: QVQLVESGGGLVQPGGSLRLSCAASGSIFGLNFMGWWRQAPGSQRELVAIATSGGSIQYGDSVKGRFTISRDNAKNTVYLQMASLKPEDTAVYYCNVHTYDFLGRDYWGQGTQVTVSL
B4: 5-hIgG1Fc (Fc fusion, not shown: a dimerising Fc or GST)
chain: QVQLVESGGGLVQTGGSLRLSCAASDSTFSSYIMGWFRQAPGKEREFVAGITWSGGIKDYADSVKGRFTIARDNAKNTVYLQMNSLKPEDAAIYYCAANAIQLTRRSGDYAYWGQGTQVTVSS
B5: 2-mIgG2aFc (Fc fusion, not shown: a dimerising Fc or GST)
chain: B2 chain with Q1E, A5V, T56S, D62N

The binders below were run against human Claudin18.1 expressed on cells (human) (UniProt P56856) (assay: flow cytometry on 293FT-hClaudin18.1 cells, antibody 10 ug/mL, cells with antibody binding/total cells).

Binder	binding percentage
B1	2.75%
B2	2.06%
B3	2.26%
B4	2.06%

What follows are binders tested against human Claudin18.2 expressed on cells (human) (UniProt P56856) (assay: flow cytometry on 293FT-hClaudin18.2 cells, antibody 10 ug/mL, cells with antibody binding/total cells).

Binder	binding percentage
B1	88.9%
B2	96.1%
B3	93.9%
B4	96%

What follows are binders tested against human Claudin18.1 expressed on cells (human) (UniProt P56856) (assay: flow cytometry on 293FT CLDN18.1-Luc cells, APC anti-mouse IgG Fc).

Binder	EC50
B5	133 nM
